Data as given in patent publication US9200265B2, “Anti-cocaine compositions and treatment” (priority 2006, dated 2015).

Tests used:
[1] = Melting temperature by circular dichroism (near-UV); type: physicochemical
Experimental: Plasmids containing the mutations were transformed into E. coli BL21 cells and IPTG-induced enzyme was purified on Ni-Agarose. Expressed proteins were then tested for enzymatic activity and for thermostability at 37° C. Enzyme activity was measured using the spectrophotometric assay as described in Example 1. Thermostability was also tested via the spectrophotometric assay by pre-incubation of both wild-type and mutants at 37° C. for various times. Additionally, the nature of the thermo-instability of both the wild-type and T172R mutant was analyzed by polyacrylamide gel electrophoresis under denaturing and non-denaturing conditions. Briefly, mutant and wild-type enzyme at 0.1 mg/ml were incubated at 37° C. for various time-points, cooled to 4° C., mixed with SDS-loading dye containing-mercaptoethanol and run on 10% SDS-PAGE gels (denaturing conditions) or run on native 10% polyacrylamide gels (non-denaturing conditions) at 4° C. Gels were fixed with 10% methanol, 7% acetic acid for 30 minutes, and then stained with Sypro-Ruby protein gel stain (Molecular Probes, Invitrogen) for 3 hours. Protein staining was visualized under UV-light using an AlphaImager™ 3400 (Alpha Innotech). Finally, the exact melting temperature of both the wild-type and T172R mutant were determined by circular dichroism using a JASCO-810 spectropolarimeter driven by a JASCO V500/FP-750 analysis program for Windows. The CD spectra were measured in millidegrees and normalized against PBS buffer.

[2] = Low-UV CD spectra melt with CCA deconvolution; type: physicochemical; details: for #3 formation: accumulation of the fully melted protein; for #1 melt: initial spectra melts, 0.2 mg/ml; for #2 melt: melt of the intermediate state
Experimental: Low-UV CD spectra data were obtained using an Aviv Spectropolarimeter Mode 400, with the help of Norma Greenfield, UMDNJ, using a 5-cell holder and 0.2 mg/ml protein concentrations. Raw data values obtained were blanked on control PBS, smoothed, and deconvoluted using the CCA algorithm as described by A. Perczel, K. Park, and G. D. Fasman, [Analysis of the circular dichroism spectrum of proteins using the convex constraint algorithm: a practical guide. Analytical Biochemistry 203, 83-93 (1992).] This algorithm finds the minimum number of curves needed to reconstruct a data set, and expresses the percentage each curve contributes to the data set as a function of temperature.
Below is presented a low UV CCA denconvolution analysis of CocE WT and 4 mutants, obtained in a single CD spectra melt using a 5-cell holder. The experiment was performed over the period of 8 hours, from 0-80° C.
Temperature dependent melting was observed between the wavelengths tested (200-250 nm), and the smoothed spectra for each mutant are shown in FIG. 29. […] Dose response analysis was used to approximate the temperature at which the initial spectra melts (1), the formation and melt of the intermediate state (2), and the accumulation of the fully melted protein (3).

[3] = Half-life of CocE in rat plasma; type: in vitro ADME
Experimental: CocE's protective effects were eliminated when rats were treated 100 min prior to cocaine. This time-dependent effect is most likely due to the thermal deactivation of the enzyme in vivo.

[4] = Ex vivo cocaine degradation by CocE in human plasma (HPLC tandem MS)
[5] = tested on: cocaine-induced lethality; assay: Rodent model of acute cocaine toxicity (convulsions and lethality) in rats; details: for protection against cocaine-induced lethality: one minute before 180 mg/kg cocaine
[6] = 1.0 mg i.v. one minute after cocaine i.p., rats

B1: CocE: wild-type cocaine esterase of Rhodococcus sp. MB 1, SEQ ID NO: 1, Accession No. AF173165 (protein)
chain: MVDGNYSVASNVMVPMRDGVRLAVDLYRPDADGPVPVLLVRNPYDKFDVFAWSTQSTNWLEFVRDGYAVVIQDTRGLFASEGEFVPHVDDEADAEDTLSWILEQAWCDGNVGMFGVSYLGVTQWQAAVSGVGGLKAIAPSMASADLYRAPWYGPGGALSVEALLGWSALIGTGLITSRSDARPEDAADFVQLAAILNDVAGAASVTPLAEQPLLGRLIPWVIDQVVDHPDNDESWQSISLFERLGGLATPALITAGWYDGFVGESLRTFVAVKDNADARLVVGPWSHSNLTGRNADRKFGIAATYPIQEATTMHKAFFDRHLRGETDALAGVPKVRLFVMGIDEWRDETDWPLPDTAYTPFYLGGSGAANTSTGGGTLSTSISGTESADTYLYDPADPVPSLGGTLLFHNGDNGPADQRPIHDRDDVLCYSTEVLTDPVEVTGTVSARLFVSSSAVDTDFTAKLVDVFPDGRAIALCDGIVRMRYRETLVNPTLIEAGEIYEVAIDMLATSNVFLPGHRIMVQVSSSNFPKYDRNSNTGGVIAREQLEEMCTAVNRIHRGPEHPSHIVLPIIKR
modifications: Rhodococcus sp. MB1
For B1, the detectable denaturation beginning ([1]; near-UV CD) was “approximately 30 °C”, the melting temperature ([1]; near-UV CD (260-320 nm), curve-fitting) was 36.15 °C and the “#3 formation” value [2] was 59 °C. For the same molecule, the “#3 formation” value ([2]; listed as WT) was 59.86 °C, the “#2 formation” value ([2]; formation of the intermediate state) was 34.57 °C and the “#1 melt” value [2] was 37 °C. The “#1 melt” value ([2]; listed as WT) was 37.04 °C, the “#2 melt” value [2] was 50 °C and the “#2 melt” value ([2]; listed as WT) was 50.98 °C. For the same molecule, the half-life [3] was “about 10 minutes”, the “decrease of cocaine levels compared with vehicle-treated plasma” value ([4]; human plasma 37° C., 300 μM cocaine, 0.05 mg/ml CocE, within 1 min) was “at least 100 fold” and the “cocaine level after esterase” value ([4]; human plasma 37° C., 300 μM cocaine, 2-minute timepoint) was “below 1 microM”. For the same molecule, the “cocaine concentration after esterase” value ([4]; human plasma 37° C., 300 μM cocaine, within 1 min) was “approximately 2 μM”, the “cocaine concentrations in serum metabolized” value ([4]; in less than one minute (FIG. 15)) was 150 fold and the “protection against cocaine-induced lethality” value ([5]; 0.1 mg) was “no protection”. For the same molecule, the lethality ([5]; 0.32 mg i.v. one minute after 1 g/kg cocaine i.p., rats) was 100%, the rats saved ([5]; 1 mg CocE 1 minute before cocaine (100 mg/kg)) was 100% and the rats survived ([5]; 1 mg CocE 30 minutes before cocaine (100 mg/kg)) was 66%. The protective effects ([5]; 1 mg CocE 100 min prior to cocaine) was “eliminated”, the rats survived ([5]; 1 mg CocE '1 minutes' before cocaine as printed (100 mg/kg)) was 32% and the “time after the LD100 dose of cocaine at which the enzyme provided protection” value ([5]; 1 mg CocE, 100 mg/kg cocaine) was “up to 6 minutes”. The “cocaine dose required to surmount the protective properties” value [5, 6] was 1000 mg/kg, the “shift in the cocaine-toxicity dose effect curve” value [5, 6] was “ten-fold shift” and the “protection against cocaine-induced lethality” value ([5]; 1 mg) was 100%. The “duration of anti-cocaine effect” value ([5]; preliminary studies in rats) was “more than 30 minutes”.
